Data taken from paper PMC4939424, “Phosphatidylinositol 3-Kinase-Associated Protein (PI3KAP)/XB130 Crosslinks Actin Filaments through Its Actin Binding and Multimerization Properties In Vitro and Enhances Endocytosis in HEK293 Cells” (Frontiers in Endocrinology, 2016).

Target: the molecule itself
Assay: native gel or EMSA; blue native (BN)-PAGE of immuno-purified FLAG-PI3KAP/XB130 on NativePAGE Novex Bis-Tris gels, immunoblot with anti-FLAG antibody

B1: FLAG-tagged recombinant full-length PI3KAP/XB130 (natural protein, mouse, UniProt Q5DTU0-2 1-843, looked up)
chain: MERYKAQGCCCLVVQRRILQVSASLEQLLTELDDFLKVLDQENLSSAAVLKKSGLSELLRLYTKSSSSDEEYIYMNKVSVNGEQNSASPDKVPEEQGPLTNGEPSQHSSAPQKSLPDLPPPKMIPERKQPTVPKIESPEGYYEEAEPFDRSINEDGEAVSSSYESYDEDENSKGKAAPYQWPSPEASIELMRDARICAFLWRKKWLGQWAKQLCVIRDTRLLCYKSSKDHSPQLDVNLRGSSVVHKEKQVRKKGHKLKITPMNADVIVLGLQSKDQAEQWLRVIQEVSGLPSEGASEGNQYTPDAQRLNCQKPDIAEKYLSAAEYGITINGHPEIPETKDVKKKCSAGLKLSNLMNLGRKKSTSLEPPERSLETSSYLNVLVNSQWKSRWCFVRDSHLHFYQDRNRSKVAQQPLSLVGCDVLPDPSPDHLYSFRILHNGEELAKLEAKSSEEMGHWLGLLLSESGSKTDPEELTYDYVDAERVSCIVSAAKTSLLLMQRKFSEPNTYIDGLPSRDCQDDLYDDVEVSELIAVVEPAEEAAPAVDANSGSEPDRVYLDLTPVKSFLHSSSEAQAQASLPAVPHQDDVAETLTVDPKPGTTPEEPHTESPGDPEVQQRQPEVQESSEPIEPTPRITMVKLQAEQQRISFPANCPDTMASAPIAASPPVKEKLRVTSAEIKLGKNRTEAEVKRYTEEKERLERSKEEIRGHLAQLRREKRELKETLLRCTDKGVLAKLEQTLKKIDEECRMEESRRVDLELSIMEVKDNLKKAEAGPVTLGTTVDTTHLDNMSPRPQPKAATPNPPPDSTPVNSASVLKNRPLSVMVTGKGTVLQKAKEWEKKGAS
notes: also called FLAG-PI3KAP/XB130; FLAG-PI3KAPXB130; source: HEK293T, transfected (pShuttle2): purified with anti-FLAG M2 agarose and eluted with FLAG peptide; also in lysate (co-immunoprecipitation)
B1: binds.
